Laboratory results reported in PMC6908506, “Development of Foot-and-Mouth Disease Virus-Neutralizing Monoclonal Antibodies Derived From Plasmablasts of Infected Cattle and Their Germline Gene Usage” (Frontiers in Immunology, 2019).

molecular target: T1, FMDV O/Mya/98 146S antigen (Foot-and-mouth disease virus serotype …, UniProt G8JKC2, strain); experiment: immunostaining of cells or tissue; details: one partner purified
T1 construct: also called purified virus antigen; copies: + + +

Row | Binder | binding result
1 | F45 (antibody, V domains shown) VH: QVQLRESGPSLVKPSQILSLTCTVSGFSLSSNGAVWVRQAPGKTLEWIGGISVDGSVRYNPALNSRLSITKDNSKSQVSLSMTSATPEDTATYFCVRCFSGYSPNSVCSTADYVDAWGQRLLVTVSS VL: QAVVNQPSSVSGSLGQRVFITCSGSSSNVGNGYVIWYQLIPGSGPTTLIYGDASRPSGVPDRFSGSRSGNTATLTIISLQAEDEEDYFCASAEDSSTNAVFGSGTTLTVL | binds
2 | F39 (antibody, V domains shown) VH: QVQLRESGLSLVKPSQTLSLTCTVSGFSLSSYGVGWVRQAPGKALECLGGITSGGSADYNPALKSRLSITKDNSKSQVSLSLSSVTTEDTATYYCGKTSRFYGLVCNVDFYDDSEYVDAWGQGLLVTVSS VL: QAVLTQPSSVSGSLGQRVSITCFGSSNDVGYGDYVSWFQQIPGSAPRMIIYGATRRPSGVPDRFSGSRSGNTATLTINSLQAEDEADYFCASPVGLGSGYPIFGSGTALTVL | binds
3 | E40 (antibody) VH: QVQLRESGPSLVKPSQTLSLTCTASGFSLSDKAVGWVRQAPGKALEWLGGIDTGGNKDYNPGLKSRLSITKDNSKSQMSLSMSSVTTEDSATYYCTTVHQKTNTAKTCRDGHVDVSSCYGSSGCPRSGCCACRRWGGTACSICSSRIVTYTYEFHVDVWGQGLLVTVSS VL: QAVLTQPSSVSGSLGQRVSITCSGSSSNVGNGYVSWYQLIPGSAPRTLIYGDTSRASGVPDRFSGSRSGNTATLTISSLQAEDEADYFCASPEDSSTNALFGSGTTLTVL | binds
4 | F4 (antibody, V domains shown) VH: QVQLRESGPSLVKPSQTLSLTCTVSGFSLSSSGVVWVRQAPGKALEWVGSLSSGGLTSRNPALKSRISITKDNSKSQVSLSMSSVTPEDTATYYCAKCGGFYGSTCNGYGSSYDFWGRGLLVTVSS VL: QAVLTQPSSVSGSLGQRVSITCSGSSSNVGNGYVSWYQLIPGSAPRTLIYGDTSRASGVPDRFSGSRSGNTATLTISSLQAEDEADYFCASAEDSSSNAVFGSGTTLTVL | binds
5 | F115 (antibody) VH: QVQLRESGPSLVKPSQTLSLTCTASGFSLSDKTLGWVRQAPGKALEWLGSMDSGGNTGYNPDLKSRLSITKDNSRSQVSLSVSSVTTEDSATYYCTTTHQISRKEQRCPDGCRVNGWWGDSGCDDDTYCRYNYWGNCIRCTYVYTYEFHVDAWGQGLLVTVSS VL: QAVLTQPSSVSGSLGQRVSITCSGSSSNVENGYVSWYQLIPGSTPKTLIYGDTSRASGVPARFSGSRSGNTATLTISSLQAEDEADYFCASAEDTSSNAVFGSGTTLTVL | binds
6 | E43 (antibody) VH: QVQLRESGPSLVKPSQTLSLTCTASGFSLRDKAVGWVRHTPGKALEWIGSIDSSGNTGYNPGLKSRLSITKDNSKSQVSLSVSAVLSEDSATYYCTVVHQETRQEEGCPDGYLYDSRCGPGGGCSGRLCTRTPSARANDFCCTGRRIRTSTYQHHIDAWGQGLLVTVSS VL: QAVLTQPSSVSGSLGQRVSITCSGSSSNVGNGYVSWYQLTPGSAPRTLIYGDTTRASGVPDRVSGSRFGNTATLTISSLQAEDEADYFCASAEDGNSNAVFGSGTTLTVL | binds
7 | F104 (antibody, V domains shown) VH: QVQLRESGPSLVKPSQTLSLTCTVSGFSLSSYDVGWVRQAPGKGLECLGGIGNRGNTKYNPALKSRLSITKDNSKSQVSLSLSSVTSEDTATYYCTKSYGGNDVYDCYDSEYWGQGLLVTVSS VL: QAVLTQPSSVSGSLGQRVSITCSGSSNNIGRYSVGWYQQVPGSGLRTIIYISSSRPSGVPDRFSGSKSGNTATLTISSLQAEDEADYFCATNDYSSDTTIFGSGTTLTVL | binds
8 | F56 (antibody, V domains shown) VH: QVQLRESGPSLVKPSQTLSLTCTFSGFSLSSNGVLWVRQAPGKALEWLGGMCRSGSTNFNPALKSRLSITKNNSKSQVSLSVSSVTPEDTATYYCTTGFDLDCDWGYEDSTWGQGLLVTVSS VL: QAVLTQPSSVSGSLGQRVSITCSGSSSNIGNDDVGWYQQIPGSGLRTIIYGNNSRPSGVPDRFSGSKSGNTATLTISSLQAEDEADYFCASADDNTSTAVFGSGTTLTVL | binds
9 | F64 (antibody, V domains shown) VH: QVQLRESGPSLVKPSQTLSLTCTVSGLSLNSIGVIWVRQAPGKALEWVGGINSGGSTYYKSALKSRLSITKDNSNSQVSLSLNSVTPEDTATYYCATYVGDFWGQGLLVTVSS VL: QAVLTQPSSVSGSLGQRISITCSGSSSNIGRYNVGWYQQVPGSGLRTIIYGSSSRPSGVPDRFSGSKSGNTATLTISSLQAEDEADYFCAADDNSNSTAVFGSGTTLNVL | binds
10 | F36 (antibody, V domains shown) VH: QVQLRESGPSLVKPSQTLSLTCTVSGFSLSSYAVNWVRQAPGKALECLGSIGSGGSTGYNPALKSRLSITKDNSKSQVSLSVSSVTPEDTATYYCAKTTYSGDSRTFYGCYGSGSAYETYVDTWGQGLLVTVSS VL: QAVLTQPSSVSGSLGQRVSITCSGSSNNIGNNGVVWYQQVPGSGLRTIIYGSTGRPSGVPDRFSGSKSGNTATLTISSLQAEDEADYFCGTADDSSSIAVFGSGTTLTVL | binds

molecular target: T1, FMDV O/Mya/98 146S antigen; experiment: ELISA; details: both partners purified

Row | Binder | binding result
11 | E9 (antibody, V domains shown) VH: QVQLRESGPSLVKPSQTLSLTCTVSGFSLSNYAVSWVRQAPGKALECLGSISSDGNTGYNPALKSRLSITKDNSKSQVSLSVSSATPEDTATYYCTKCHYPGGCCGYWNDDHVDAWGQGLLVTVSS VL: QAVLTQPSSVSGSLGQRVTITCSGSSSNIGMYDVGWYQQVPGSGLRTIIYGSSSRPSGVPDRFSGSKSGNTATLTIMSLQAEDEADYFCTTADYSSSTVVFGSGTTLTVL | binds
12 | E53 (antibody, V domains shown) VH: QVQLRESGPSLVKPSQTLSLTCTVSGFSLSSYAVDWVRQAPGKALECLGGISRDGDISYNPALKSRLSITKDDSKSQVSLSLSSVTSEDTATYYCAKATDGGYFRSTYGCQGFTVNTYVDIWGQGFLVTVSS VL: QAVLTQPSSLSGSLGQRVSITCSGSSGNIGTRDVSWYQQIPGSGLRTIIYGNSSRPSGVPDRFSGSRSGNTATLRIRSLQPEDEADYFCGSADYSSEIAVFGSGTTLTVL | binds
13 | B59 (antibody, V domains shown) VH: QVQLRESGPSLVKPSQTLSLTCTVSGFSLSDYAVGWVRQAPGKALEWVGGISSGGTTCSKPALKSRLSITRDSSKSQVSLFVTSMTPEDTATYYCAKYFRHDYDVGCSYIMEAVDAWGQGLLVTVSS VL: QAVLTQPSSVSGSLGQRVSITCSGSSSNVGRGNYVNWFQQIPGSAPRTLIYGATSRASGVPNRFSGSRSGNTATLTISSLQAEDEADYFCAVWDDNIRNAVFGSGTTLILL | binds
14 | B64 (antibody, V domains shown) VH: QVQLRESGPSLVKPSQTLSLTCTVSGFSLSNYDVAWVRQPPGKALECLGGVSISGRTDYNPALKSRLSITKDNSKNQVSLSLSSVTTEDTATYYCAKFFGDYGYDYYGCGYGAGDHYVDAWGQGLLVAVSS VL: QAVLTQPSSVSGSLGQRVSITCSGSSSNVGNGYVSWYQLIPGSAPRTLIYGDTSRASGVPDRFSGSRSGNTATLTISSLQAEDEADYFCASAEGSSSNAGFGSGTTLIVL | binds
15 | E16 (antibody) VH: QVQLRESGPSLVKPSQTLSLTCTVSGFSLSDKAVGWVRQAPGKALEWLGSIDGGEKTTYNPGLKSRLSITKDNSKNQVSLSVSSVSTEDSATYYCSIVYQKRERKCPDGYRPGTFCGSGINARDCRYDGCYASEHWQCCDTYTPGTSAYNFHIDAWGQGLLVTVSS VL: QAVLTQPSSVSGSLGQRVSITCSGSSSNVGKGYVSWYQRIPGSAPRTLIYDDTSRASGVPDRFSGSRSGNTATLTISSLQVEDEADYFCASAEGSSSNAVFGSGTTLTVL | binds
16 | E11 (antibody, V domains shown) VH: QVQLRESGPSLVKPSQTLSLTCTVSGFSLNSYAVTWVRQAPGKALECLGSIGSRGGTGYNQALKSRLSITKNNSKSQVSLSVRSVTPEDTATYYCVKESGSGYWDDACWGFGVGDDYVDTWGHGLLVTVST VL: QAVLTQPSSVSGSLGQRVSITCSGSSSNVGRGNYVSWFQQLPGAAPRTLIYAATSRASGVPDRFSGSRSGNTATLTISSLQAEEEAYYFCAVYDTSSKAAVFGSGTTLTVL | binds
17 | E12 (antibody, V domains shown) VH: QVQLRESGPSLVKPSQTLPLTCTVSGFSLSDYGVGWVRQAPGKALEWLGVIYYAGRTVYNPALKSRLSITKDNSKSQISLSLSSVITEDTATYYCTRCYEDYYYDCIDWGHRYDLWGQGLLVTVSS VL: QAVLTQPSSVSGSLGQRVSITCSGSSSNVGTGNYVTWFQQIPGSAPRILIYGASSRVSGVPDRFSGSRSGNTATLTISSLQAEDEADYFCTSYESDYTAVFGSGTTLTVL | binds
18 | 60 (antibody, V domains shown) VH: QVQLRESGPSLVKPSQTLSLTCTISGFSLSDATVGWVRQASGKALEWLGAIWPSGSTGYNLGLKSRLTITKDNSKTQVFLSLNSLTPEDTATYHCTGGGIGFIWGQGLLVTVSP VL: QAVLTQPSSVSGSLGQRVSITCSGSPNNVGLGNFVSWFQQIPGSAPRSLIYGATSRVSGVPDRFSGSRSMNTATLTISSLQAEDEADYFCASYERNNTGVFGSGTTLTVL | binds
19 | E10 (antibody, V domains shown) VH: QVQLRESGPSLVKPSQTLSLTCTVSGFSLSSNGVVWVRQAPGKALEWVGCSRGEGSTFYNQALRSRLSITKDNSKSQVSLSVSSVTPEDTATYYCTKVYNGGCGRRGYDAAAYVDAWGQGLLVTVSS VL: QAVLTQPSSVSGSLGQRVSITCSGRSNNIGGNGVGWYQQVPGSGLRTIIYGSSSRPSGVPDRFSGSKSGNTATLTISSLQAEDEADYFCATADYSSGTAVFGSGTTLTVL | binds
